The target in data set [1] is LPHN2 Lec/Olf domain (human). Kind of data set: ELISA; solid-phase binding assay: LPHN2 extracellular domain variants (100 nM) coated on MaxiSorp 96-well plates, 1 h room temperature, blocked with 1% BSA; 0.001-10 μM LRG1 forms added; detected with anti-LRG1 antibody and peroxidase-conjugated secondary antibody. A general note: ELISA stands for enzyme-linked immunosorbent assay.

Data set [2] concerns the target LPHN2 ecto-full domain (human). The description is as above.
The target of the next data set is T1, LPHN2 Lec (Homo sapiens).
T1 chain: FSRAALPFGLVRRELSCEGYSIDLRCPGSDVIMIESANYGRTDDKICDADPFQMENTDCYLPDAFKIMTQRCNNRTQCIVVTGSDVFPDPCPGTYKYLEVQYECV
Kind of data set: ELISA.

For data set [3], the target named is T2, LPHN2 olfactomedin-like (Olf) domain (human, UniProt O95490 135-394).
T2 chain: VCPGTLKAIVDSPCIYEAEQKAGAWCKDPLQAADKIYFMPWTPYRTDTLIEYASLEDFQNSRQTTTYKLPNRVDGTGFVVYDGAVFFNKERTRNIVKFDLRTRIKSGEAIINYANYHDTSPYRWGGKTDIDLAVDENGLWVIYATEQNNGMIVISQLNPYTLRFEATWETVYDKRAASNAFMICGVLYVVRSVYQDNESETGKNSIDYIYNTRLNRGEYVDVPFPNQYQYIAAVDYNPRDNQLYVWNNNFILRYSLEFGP
Kind of data set: ELISA.

Data set [4] can be described thus: recombinant protein expression level. The settings on record: glycan lost; control: LRG1 WT.

B1: Leucine-rich α-2-glycoprotein 1 (LRG1), recombinant human, glycosylated (natural protein)
chain: VTLSPKDCQVFRSDHGSSISCQPPAEIPGYLPADTVHLAVEFFNLTHLPANLLQGASKLQELHLSSNGLESLSPEFLRPVPQLRVLDLTRNALTGLPPGLFQASATLDTLVLKENQLEVLEVSWLHGLKALGHLDLSGNRLRKLPPGLLANFTLLRTLDLGENQLETLPPDLLRGPLQLERLHLEGNKLQVLGKDLLLPQPDLRYLFLNGNKLARVAAGAFQGLRQLDMLDLSNNSLASVPEGLWASLGQPNWDMRDGFDISGNPWICDQNLSDLYRWLQAQKDKMFSQNDTRCAGPEAVKGQTLLAVAKSQ
modifications: N-linked glycans (N-acetylglucosamine seen in the crystal) at N79, N186, N269 and N325; Alexa 647-conjugated in the FACS assay
Usually Kd stands for the concentration at which binding is half-saturated. B1 had a Kd in data set [1] of 920 nM.

B2: Deglycosylated LRG1 (LRG1 treated with PNGase F) (natural protein)
chain: VTLSPKDCQVFRSDHGSSISCQPPAEIPGYLPADTVHLAVEFFNLTHLPANLLQGASKLQELHLSSNGLESLSPEFLRPVPQLRVLDLTRNALTGLPPGLFQASATLDTLVLKENQLEVLEVSWLHGLKALGHLDLSGNRLRKLPPGLLANFTLLRTLDLGENQLETLPPDLLRGPLQLERLHLEGNKLQVLGKDLLLPQPDLRYLFLNGNKLARVAAGAFQGLRQLDMLDLSNNSLASVPEGLWASLGQPNWDMRDGFDISGNPWICDQNLSDLYRWLQAQKDKMFSQNDTRCAGPEAVKGQTLLAVAKSQ
modifications: N-glycans removed by PNGase F; Alexa 647-conjugated in the FACS assay
For the molecule B2, the dissociation constant (Kd) was found to be 450 nM in data set [1], 840 nM in data set [2], 1100 nM with LPHN2 Lec and 450 nM in data set [3].

B3: leucine-rich α-2-glycoprotein 1 (LRG1): N79D (protein)
parent chain: MSSWSRQRPKSPGGIQPHVSRTLFLLLLLAASAWGVTLSPKDCQVFRSDHGSSISCQPPAEIPGYLPADTVHLAVEFFNLTHLPANLLQGASKLQELHLSSNGLESLSPEFLRPVPQLRVLDLTRNALTGLPPGLFQASATLDTLVLKENQLEVLEVSWLHGLKALGHLDLSGNRLRKLPPGLLANFTLLRTLDLGENQLETLPPDLLRGPLQLERLHLEGNKLQVLGKDLLLPQPDLRYLFLNGNKLARVAAGAFQGLRQLDMLDLSNNSLASVPEGLWASLGQPNWDMRDGFDISGNPWICDQNLSDLYRWLQAQKDKMFSQNDTRCAGPEAVKGQTLLAVAKSQ
For the molecule B3, the expression_or_secretion entry in data set [4] is recorded as “no change”.

B4: leucine-rich α-2-glycoprotein 1 (LRG1): N186D (protein)
parent chain: MSSWSRQRPKSPGGIQPHVSRTLFLLLLLAASAWGVTLSPKDCQVFRSDHGSSISCQPPAEIPGYLPADTVHLAVEFFNLTHLPANLLQGASKLQELHLSSNGLESLSPEFLRPVPQLRVLDLTRNALTGLPPGLFQASATLDTLVLKENQLEVLEVSWLHGLKALGHLDLSGNRLRKLPPGLLANFTLLRTLDLGENQLETLPPDLLRGPLQLERLHLEGNKLQVLGKDLLLPQPDLRYLFLNGNKLARVAAGAFQGLRQLDMLDLSNNSLASVPEGLWASLGQPNWDMRDGFDISGNPWICDQNLSDLYRWLQAQKDKMFSQNDTRCAGPEAVKGQTLLAVAKSQ
Take B4: the expression_or_secretion entry in data set [4] is listed as “no change”.

B5: leucine-rich α-2-glycoprotein 1 (LRG1): N269D (protein)
parent chain: MSSWSRQRPKSPGGIQPHVSRTLFLLLLLAASAWGVTLSPKDCQVFRSDHGSSISCQPPAEIPGYLPADTVHLAVEFFNLTHLPANLLQGASKLQELHLSSNGLESLSPEFLRPVPQLRVLDLTRNALTGLPPGLFQASATLDTLVLKENQLEVLEVSWLHGLKALGHLDLSGNRLRKLPPGLLANFTLLRTLDLGENQLETLPPDLLRGPLQLERLHLEGNKLQVLGKDLLLPQPDLRYLFLNGNKLARVAAGAFQGLRQLDMLDLSNNSLASVPEGLWASLGQPNWDMRDGFDISGNPWICDQNLSDLYRWLQAQKDKMFSQNDTRCAGPEAVKGQTLLAVAKSQ
As for B5, the expression_or_secretion result in data set [4] was “no change”.

B6: leucine-rich α-2-glycoprotein 1 (LRG1): N325D (protein)
parent chain: MSSWSRQRPKSPGGIQPHVSRTLFLLLLLAASAWGVTLSPKDCQVFRSDHGSSISCQPPAEIPGYLPADTVHLAVEFFNLTHLPANLLQGASKLQELHLSSNGLESLSPEFLRPVPQLRVLDLTRNALTGLPPGLFQASATLDTLVLKENQLEVLEVSWLHGLKALGHLDLSGNRLRKLPPGLLANFTLLRTLDLGENQLETLPPDLLRGPLQLERLHLEGNKLQVLGKDLLLPQPDLRYLFLNGNKLARVAAGAFQGLRQLDMLDLSNNSLASVPEGLWASLGQPNWDMRDGFDISGNPWICDQNLSDLYRWLQAQKDKMFSQNDTRCAGPEAVKGQTLLAVAKSQ
Turning to B6, the expression_or_secretion entry in data set [4] is reported as “no change”.

For the origin of these results see PMC10238393 (2023).
